Data: the supplement of paper PMC10567573

B1: NECAB1 (parent)
chain: FSPNSPQFNVSGPGLLEEDNQWMT

Variants of: B1
Assay: protein stability index of a GFP-peptide fusion (GPS, HEK-293T) (PSI 1-6); higher = more stable
Conditions: c terminus: a fixed tail appended
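Also: lentivirally expressed fusions sorted by FACS into six bins by GFP to DsRed ratio, PSI derived from sequencing read proportions per bin multiplied by bin number.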

Row | Variant | protein stability index
1 | Q7K | 2.27
2 | Q7L | 1.45
3 | Q7A | 1.92
4 | Q7T | 3.09
5 | Q7D | 4.25
6 | Q7G | 2.74
7 | Q7M | 2.02
8 | Q7Y | 1.72
9 | Q7I | 2.11
10 | Q7C | 2
11 | Q7V | 2.22
12 | Q7N | 2.89
13 | Q7H | 2.94
14 | Q7P | 2.9
15 | Q7S | 2.66
16 | Q7R | 2.07
17 | Q7F | 2.59
18 | Q7E | 3.88
19 | Q7W | 2.64
20 | S11A | 3.02
21 | S11F | 2
22 | S11E | 3.4
23 | S11D | 3.73
24 | S11C | 2.54

Row | Variant | protein stability index
25 | P6N | 2.56
26 | P6Q | 2.48
27 | P6A | 2.95
28 | P6I | 2.34
29 | P6L | 2.51
30 | P6H | 2.14
31 | P6V | 2.56
32 | P6G | 2.34
33 | P6M | 2.03
34 | P6C | 2.26
35 | P6S | 2.62
36 | P6W | 4.26
37 | P6E | 3.88
38 | P6T | 2.86
39 | P6D | 2.82
40 | P6Y | 1.92
41 | P6F | 2.28
42 | P6R | 2.05
43 | P6K | 2.5
44 | P3A | 3.26
45 | P3N | 2.76
46 | P3H | 3.17
47 | P3S | 2.68
48 | P3C | 2.33

Row | Variant | protein stability index
49 | P3M | 3.22
50 | P3W | 2.04
51 | P3Q | 3.26
52 | P3T | 3.05
53 | P3E | 3.71
54 | P3V | 2.88
55 | P3G | 2.2
56 | P3Y | 2.62
57 | P3D | 2.24
58 | P3I | 3.33
59 | P3L | 2.87
60 | P3R | 2.88
61 | P3K | 3.11
62 | P3F | 2.59
63 | S5H | 3.16
64 | S5K | 2.82
65 | S5N | 3.03
66 | S5P | 3.39
67 | S5W | 2.27
68 | S5A | 2.72
69 | S5Q | 3.7
70 | S5F | 2
71 | S5L | 2.93
72 | S5I | 2.75

Row | Variant | protein stability index
73 | S5Y | 1.94
74 | S5D | 4.04
75 | S5V | 2.75
76 | S5M | 3.66
77 | S5R | 2.78
78 | S5T | 2.98
79 | S5C | 3
80 | S5G | 2.72
81 | S5E | 3.82
82 | N9Q | 2.67
83 | N9Y | 3.54
84 | N9H | 2.22
85 | N9M | 2.42
86 | N9T | 2.62
87 | N9V | 2.09
88 | N9W | 2.41
89 | N9E | 3.77
90 | N9I | 2.05
91 | N9S | 2.84
92 | N9C | 2.13
93 | N9D | 3.67
94 | N9P | 3.06
95 | N9G | 3.23
96 | N9K | 2.84

Row | Variant | protein stability index
97 | N9A | 2.35
98 | N9R | 2.32
99 | N9L | 2.12
100 | N4H | 2.53
101 | N4F | 2.4
102 | N4G | 2.53
103 | N4R | 2.82
104 | N4P | 3.53
105 | N4I | 2.67
106 | N4K | 2.98
107 | N4Q | 2.8
108 | N4S | 2.89
109 | N4Y | 2.33
110 | N4W | 2.25
111 | N4C | 2.26
112 | N4A | 3.25
113 | N4V | 3.03
114 | N4L | 2.64
115 | N4E | 3.59
116 | N4M | 2.45
117 | N4T | 3.2
118 | N4D | 3.79
119 | S2T | 2.23
120 | S2L | 3.37

Row | Variant | protein stability index
121 | S2Y | 3.49
122 | S2V | 2.66
123 | S2N | 3.28
124 | S2P | 2.47
125 | S2K | 3.63
126 | S2C | 2.63
127 | S2W | 2.58
128 | S2G | 2.08
129 | S2Q | 2.95
130 | S2I | 1.76
131 | S2D | 4.21
132 | S2H | 2.17
133 | S2F | 3.06
134 | S2E | 4.58
135 | S2R | 3.65
136 | S2M | 3.39
137 | S2A | 1.79
138 | F8S | 4
139 | F8H | 3.77
140 | F8E | 4.44
141 | F8L | 3.04
142 | F8M | 3.65
143 | F8V | 3.61
144 | F8Y | 3.43

Row | Variant | protein stability index
145 | F8N | 4.29
146 | F8K | 3.78
147 | F8P | 3.47
148 | F8I | 3.26
149 | F8W | 1.43
150 | F8T | 3.5
151 | F8D | 4.15
152 | F8C | 3.42
153 | F8Q | 3.79
154 | F8R | 3.65
155 | F8G | 3.83
156 | F8A | 4.17
157 | F1D | 4.53
158 | F1G | 4.4
159 | F1H | 4.23
160 | F1P | 4.51
161 | F1Y | 3.25
162 | F1V | 4.34
163 | F1A | 4.01
164 | F1T | 4.11
165 | F1K | 4.43
166 | F1R | 4.33
167 | F1C | 3.13
